The text below walks through data of the nanobody polyreactivity screen of Harvey et al. (2022).

The nature of this data set: yeast display, Sf9 membrane polyspecificity reagent, FACS + sequencing; frameworks hold sequencing errors. In outline:
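A nanobody's polyreactivity label depends on the gate it was sorted from. Yeast display cells were stained with 10% biotinylated, detergent-solubilized Sf9 membrane reagent for 1 hour at 4 °C, enriched on streptavidin microbeads and sorted by FACS. The low and high (top ~1%) gates were set on anti-HA fluorescence for expression and streptavidin fluorescence for reagent binding.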
Consider “QVQLVESGGGLVQAGGSLRLSCAASGFISGFYGMGWYIQAPGKEREFVAAIDFIDGDTYYADSVKGRFTISRDKAKNTVYLQMNSLKPEDTAVYYCAADGSFCQFDYWGQGTQVTVSS”, for which the “polyreactivity (PSR sort gate)” value is “low polyreactivity”.

“QVQLVESGGGLVQAGGSLRLSCAASGFISGFYGMGWYRQAPGKEREFVAAIDFIDGDTYYADSVKGRFTISRDNAKNTVYLQMNSLKPEDTAVYYCAADGSFWQFDYWGQGTQVTVSS”: the “polyreactivity (PSR sort gate)” value is given as “low polyreactivity”.

On to “QVQLVESGGGLVQAGGSLRLSCAASGFISNDNAMGWYRQAPGKERELVATIDISDASTYYADSVKGRFTISRDNAKNTVYLQMNSLKPEDTAVYYCAAESDEWFTWYWYGYWGQGTQVTVSS”, for which the “polyreactivity (PSR sort gate)” value is reported as “low polyreactivity”.

Consider “QVQLVESGGGLVQAGGSLRLSCAASGFISPGYAMGWYRQAPGKERELVAAITRDGGTYYADSVKGRFTISRDNAKNTVYLQMNSLKPEDTAVYYCAAEGSFRKFDYWGQGTQVTVSS”, for which the “polyreactivity (PSR sort gate)” value is listed as “low polyreactivity”.

For “QVQLVESGGGLVQAGGSLRLSCAASGFISPPYAMGWYRQAPGKERELVAAIRSSGGSTYYADSVKGRFTISRDNAKNTVYLQMNSLKPEDTAVYYCNADWIYISSYGWYSYDYWGQGTQVTLSS”, the “polyreactivity (PSR sort gate)” value is “high polyreactivity”.

In the case of “QVQLVESGGGLVQAGGSLRLSCAASGFISPPYAMGWYRQAPGKERELVAAIRSSGGSTYYADSVKGRFTISRDNPKNTVYLQMNSLKPEDTAVYYCNADWIYISSYGWYSYDYWGQGTQVTVSS”, the “polyreactivity (PSR sort gate)” value is “high polyreactivity”.

For “QVQLVESGGGLVQAGGSLRLSCAASGFISPYAMRWYRQAPGKERELVAVITSSGGSTYYADSVKGRFTISRDNAKNTVYLQMNSLKPEDTAVYYCAARFYFRWYYYGSYANYWGQGTQVTVSS”, the “polyreactivity (PSR sort gate)” value is “high polyreactivity”.

On to “QVQLVESGGGLVQAGGSLRLSCAASGFISRNAMGWYRQAPGKERELVAAITRGGSTNYADSVKGRFTISRDNAKNTVYLQMNRLKPEDTAVYYCNKQRQGNSRSYYQTYYGMYYWGQGTQVTVSS”, for which the “polyreactivity (PSR sort gate)” value is given as “high polyreactivity”.

With “QVQLVESGGGLVQAGGSLRLSCAASGFISSRYAMGWYRQAPGKERELVASINWSGGSTYYADSVKGRFTISRDNAKNTVYLQMNSLKPEDTAVYYCNRVLDPTNKYYYWGQGTQVTVSS”, the “polyreactivity (PSR sort gate)” value was “high polyreactivity”.

On to “QVQLVESGGGLVQAGGSLRLSCAASGFISTPYAMGWYRQAPGKERELVAAIDISGGRTYYADSVKGRFTISRDNAKNTVYLQMNSLKPEDTAVYYCAAQLVSSYYAWYRTYYYWGQGTQVTVSS”, for which the “polyreactivity (PSR sort gate)” value is on record as “high polyreactivity”.

Consider “QVQLVESGGGLVQAGGSLRLSCAASGFISYYYAMGWYRHAPGKEREFVAAITSSGGSTRYADSVKGCFTISRDNAKNTVYLQMNSLKPEDTAVYYCAAGNPYFWPYDYWGQGTQVTVSS”, for which the “polyreactivity (PSR sort gate)” value is listed as “low polyreactivity”.

Regarding “QVQLVESGGGLVQAGGSLRLSCAASGFITPWYAMGWYRQAAGKEREWVAAIDWSGGSTYYADSVKGRFTISRDNAKNSVYLQMNSVKPEDTAVYYCAARYYTASVRAGRVRMYYWGQGTQVTVSS”, the “polyreactivity (PSR sort gate)” value was “high polyreactivity”.

Take “QVQLVESGGGLVQAGGSLRLSCAASGFIVGRYAMGWYRQAPGNERELVAAITRSGGSTYYADSVKGRFTISRDNAKNTVYLQMISLKPEQTAVYFGAAYPGRAQVAYDYWGQGTQVTVSS”: the “polyreactivity (PSR sort gate)” value was “high polyreactivity”.

Regarding “QVQLVESGGGLVQAGGSLRLSCAASGFIVRSYAMGWYRQAPGKERELVAVISRRGVNTHYADSVKGRFTISRDNAKNTVYFQMNSLKPEDTAVYYCAKGLTALGDYWGQGTQVTVSS”, the “polyreactivity (PSR sort gate)” value was “high polyreactivity”.

For the sequence “QVQLVESGGGLVQAGGSLRLSCAASGFIWSYVMGWYRQAPGKESQLVAAISRSCGRTYYADSVKGRFTISRDNAKNTVYLQMNSLKPEDTAVYYCAKDGGWSRLHYNYWGQGNQVTVSS”, the “polyreactivity (PSR sort gate)” value is “high polyreactivity”.

Take “QVQLVESGGGLVQAGGSLRLSCAASGFIYDKYVMGWSRQAPGKERQLVAAISSGGSTYYADSVKGRFTISRDNAKNTVYLQMNSLKPEDTAVYYCNAGGFWPWVYGYDSWGQGTQVTVSS”: the “polyreactivity (PSR sort gate)” value is “high polyreactivity”.

As to “QVQLVESGGGLVQAGGSLRLSCAASGFIYERNAMGWYRQAPGKERELVAAISGGGSTNYADSVKGRFTISRDNAKNTVYLQMNSLNPEDTAVYYCAADSWWYPFDYWGQGTQVTVSS”, the “polyreactivity (PSR sort gate)” value is “high polyreactivity”.

For “QVQLVESGGGLVQAGGSLRLSCAASGFIYGPNAMGWYRQAPGKERELVAAISYSGGRTYYADSVKGRFTISRDNAKNTVYLQLISLKPEDSAVYYCAAERKIKYDYWGQGTQVTVSS”, the “polyreactivity (PSR sort gate)” value is reported as “high polyreactivity”.

Take “QVQLVESGGGLVQAGGSLRLSCAASGFIYNAMGWYRQAPGKERELVAAISYSGGSTYYADSVKGRFTISRDNAKNTVYLQMNILKPEDTAVYYCAAGYYPFNYWGQGTQVTVSS”: the “polyreactivity (PSR sort gate)” value was “high polyreactivity”.

“QVQLVESGGGLVQAGGSLRLSCAASGFIYRKNAMGWYRQAPGKERELVATITKSGDTTYYADSVKGRFTISRDNAKNTVYLQMNSLKPEDTAVYYCAAPLYYIGSWDYYVRYIYDYWGQGTQVTVSS”: the “polyreactivity (PSR sort gate)” value was “low polyreactivity”.

Take “QVQLVESGGGLVQAGGSLRLSCAASGFIYSSNAMGWYRQAPGKERELVAAISSSGGRTYYAVSVKGRFTISRDNAKNTVYLQMNRLKPEDTAVYYCNAYPRSRGSANDWGQGTQVPVSS”: the “polyreactivity (PSR sort gate)” value is “high polyreactivity”.

For “QVQLVESGGGLVQAGGSLRLSCAASGFIYTYAMGSYRQAPGKERELVAAIRWIGTRTYYADSVKGRFTISRDNAKNTVYLQMNSLKPEDTADYYCAARYYTYDGYSKYDYWGQGTQVNVSS”, the “polyreactivity (PSR sort gate)” value is “high polyreactivity”.

As to “QVQLVESGGGLVQAGGSLRLSCAASGFLFGYSAMGWYRQAPGKERELVAAISYACRSTYYADSVKGRFTISRDNAKNTVYLQMNSLKPEDTAVYYCAKYGQSNYDWGQGTQVTVSS”, the “polyreactivity (PSR sort gate)” value is “high polyreactivity”.

For the sequence “QVQLVESGGGLVQAGGSLRLSCAASGFLFRYYARGWYRQAPGKERELVADISQNGDSTYYADSVKGRFTISRDTAKITVYLQMNCLNPDDTAVYYCNADNDPWPYFDGIFSVDMDYWGQGTQVTVSS”, the “polyreactivity (PSR sort gate)” value is given as “low polyreactivity”.

For the sequence “QVQLVESGGGLVQAGGSLRLSCAASGFNFIYYAMGWYRQAPGKERELVAAISRRGGSTYYADSVKGRFTISRDNAKNTVYLQMNSLKPEDTAVYYCAADYTSAILRSDYWGQGTQVTVSS”, the “polyreactivity (PSR sort gate)” value is given as “high polyreactivity”.

Regarding “QVQLVESGGGLVQAGGSLRLSCAASGFNFNKNAMGWYIQAPGKERELVASITASGTTTYADSVKGRFTISRDNAKNTVYLQMNSLKPEDTAVYYCAVRTRIWGFYYWGQGTQVTVSS”, the “polyreactivity (PSR sort gate)” value was “high polyreactivity”.

As for “QVQLVESGGGLVQAGGSLRLSCAASGFNFRANGMGWYRQAPGKERELVATITSGGTTNYADSVKGRFTISRDNAKNTVYLQMNSLKPEDTAVYYCDKRFGPAYFRLYDYWGQGTQVTVSS”, the “polyreactivity (PSR sort gate)” value is on record as “low polyreactivity”.

For the sequence “QVQLVESGGGLVQAGGSLRLSCAASGFNFRSYAIGCYRQAPGKERELVAAITSTGGRTYYADSVKGRFTISRDNAKNTVYLQMNSLKPEETAVYYCAAGRKHYAPVHFGYWGQGTQVTVSS”, the “polyreactivity (PSR sort gate)” value was “high polyreactivity”.

“QVQLVESGGGLVQAGGSLRLSCAASGFNIVRYAMGWYRHAPRKERELVATITSGTSTNYADSVKGRITISRDNAKNTVYFQMNSLKPDDTAVYYCAADHYYTGTTYNFWGQGTQVNVSS”: the “polyreactivity (PSR sort gate)” value is reported as “low polyreactivity”.

For the sequence “QVQLVESGGGLVQAGGSLRLSCAASGFNLYPNAMGWYRQAPGKERELGAAITESDGITYYADSVKGRFTISRDNAKYTVYLQMNSLKPEDTAVYYCNTGFSYTYDYWGQGTQVTVSS”, the “polyreactivity (PSR sort gate)” value is “low polyreactivity”.
